B1: CD2-associated protein, residues 271 to 331; numbered along this chain, Q9Y5K6 (parent)
chain: KEYCRTLFAYEGTNEDELTFKEGEIIHLISKETGEAGWWRGELNGKEGVFPDNFAVQINEL

± gives the uncertainty stated by the source.

In the data set the parent is B1. Briefly: abundance fitness (aPCA) (normalised: wild type 0, dead -1); higher = more abundant; growth selection in yeast, the domain comes from the species named. To be noted: Homo sapiens.
For the variant KEYCRTLFAYEGTNEDELTFKEGEIIHLISKETGEAHWWRGELNGKEGVFPDNFAVQINEL, the abundance fitness was -0.306 ± 0.17.

Take KEYCRTLFAYEGTNEDELTFKEGEIIHLISKETGEAFWWRGELNGKEGVFPDNFAVQINEL: the abundance fitness is -0.492 ± 0.25.

For KEYCRTLFAYEGTNEDELTFKEGEIIHLISKETGEAWWWRGELNGKEGVFPDNFAVQINEL, the abundance fitness is -1.08 ± 0.43.

With KEYCRTLFAYEGTNEDELTFKEGEIIHLISKETGEAKWWRGELNGKEGVFPDNFAVQINEL, the abundance fitness was -0.403 ± 0.097.

In the case of KEYCRTLFAYEGTNEDELTFKEGEIIHLISKETGEAYWWRGELNGKEGVFPDNFAVQINEL, the abundance fitness is -0.898 ± 0.2.

With KEYCRTLFAYEGTNEDELTFKEGEIIHLISKETGEASWWRGELNGKEGVFPDNFAVQINEL, the abundance fitness is -0.718 ± 0.1.

As for KEYCRTLFAYEGTNEDELTFKEGEIIHLISKETGEALWWRGELNGKEGVFPDNFAVQINEL, the abundance fitness is -0.884 ± 0.12.

As to KEYCRTLFAYEGTNEDELTFKEGEIIHLISKETGEATWWRGELNGKEGVFPDNFAVQINEL, the abundance fitness was -0.416 ± 0.32.

For KEYCRTLFAYEGTNEDELTFKEGEIIHLISKETGEAMWWRGELNGKEGVFPDNFAVQINEL, the abundance fitness was -0.819 ± 0.17.

KEYCRTLFAYEGTNEDELTFKEGEIIHLISKETGEAVWWRGELNGKEGVFPDNFAVQINEL: the abundance fitness is -0.647 ± 0.1.

As to KEYCRTLFAYEGTNEDELTFKEGEIIHLISKETGEAPWWRGELNGKEGVFPDNFAVQINEL, the abundance fitness was -0.852 ± 0.2.

Take KEYCRTLFAYEGTNEDELTFKEGEIIHLISKETGEAQWWRGELNGKEGVFPDNFAVQINEL: the abundance fitness is -0.428 ± 0.2.

For KEYCRTLFAYEGTNEDELTFKEGEIIHLISKETGEADWWRGELNGKEGVFPDNFAVQINEL, the abundance fitness was -0.617 ± 0.17.

As for KEYCRTLFAYEGTNEDELTFKEGEIIHLISKETGEAIWWRGELNGKEGVFPDNFAVQINEL, the abundance fitness is -0.613 ± 0.2.

As for KEYCRTLFAYEGTNEDELTFKEGEIIHLISKETGEAEWWRGELNGKEGVFPDNFAVQINEL, the abundance fitness is -0.368 ± 0.19.

As for KEYCRTLFAYEGTNEDELTFKEGEIIHLISKETGEANWWRGELNGKEGVFPDNFAVQINEL, the abundance fitness was -0.747 ± 0.16.

Consider KEYCRTLFAYEGTNEDELTFKEGEIIHLISKETGEARWWRGELNGKEGVFPDNFAVQINEL, for which the abundance fitness was -0.651 ± 0.09.

For the variant KEYCRTLFAYEGTNEDELTFKEGEIIHLISKETGEKGWWRGELNGKEGVFPDNFAVQINEL, the abundance fitness is -0.008 ± 0.094.

For the variant KEYCRTLFAYEGTNEDELTFKEGEIIHLISKETGEYGWWRGELNGKEGVFPDNFAVQINEL, the abundance fitness was -0.334 ± 0.15.

On to KEYCRTLFAYEGTNEDELTFKEGEIIHLISKETGEWGWWRGELNGKEGVFPDNFAVQINEL, for which the abundance fitness was -0.22 ± 0.068.

In the case of KEYCRTLFAYEGTNEDELTFKEGEIIHLISKETGEGGWWRGELNGKEGVFPDNFAVQINEL, the abundance fitness was -0.235 ± 0.051.

Turning to KEYCRTLFAYEGTNEDELTFKEGEIIHLISKETGEMGWWRGELNGKEGVFPDNFAVQINEL, the abundance fitness was -0.18 ± 0.14.

Consider KEYCRTLFAYEGTNEDELTFKEGEIIHLISKETGELGWWRGELNGKEGVFPDNFAVQINEL, for which the abundance fitness was -0.305 ± 0.072.

Turning to KEYCRTLFAYEGTNEDELTFKEGEIIHLISKETGEIGWWRGELNGKEGVFPDNFAVQINEL, the abundance fitness was -0.193 ± 0.17.

Turning to KEYCRTLFAYEGTNEDELTFKEGEIIHLISKETGEHGWWRGELNGKEGVFPDNFAVQINEL, the abundance fitness is -0.199 ± 0.15.

In the case of KEYCRTLFAYEGTNEDELTFKEGEIIHLISKETGEPGWWRGELNGKEGVFPDNFAVQINEL, the abundance fitness was determined as 0.114 ± 0.09.

As to KEYCRTLFAYEGTNEDELTFKEGEIIHLISKETGERGWWRGELNGKEGVFPDNFAVQINEL, the abundance fitness was -0.054 ± 0.046.

Regarding KEYCRTLFAYEGTNEDELTFKEGEIIHLISKETGETGWWRGELNGKEGVFPDNFAVQINEL, the abundance fitness is -0.044 ± 0.066.

Take KEYCRTLFAYEGTNEDELTFKEGEIIHLISKETGEVGWWRGELNGKEGVFPDNFAVQINEL: the abundance fitness was -0.03 ± 0.064.

For the variant KEYCRTLFAYEGTNEDELTFKEGEIIHLISKETGEQGWWRGELNGKEGVFPDNFAVQINEL, the abundance fitness stood at 0.036 ± 0.12.

Turning to KEYCRTLFAYEGTNEDELTFKEGEIIHLISKETGEFGWWRGELNGKEGVFPDNFAVQINEL, the abundance fitness is -0.158 ± 0.14.

As to KEYCRTLFAYEGTNEDELTFKEGEIIHLISKETGEAGNWRGELNGKEGVFPDNFAVQINEL, the abundance fitness was -0.787 ± 0.13.

Take KEYCRTLFAYEGTNEDELTFKEGEIIHLISKETGEAGMWRGELNGKEGVFPDNFAVQINEL: the abundance fitness was -0.17 ± 0.11.

Turning to KEYCRTLFAYEGTNEDELTFKEGEIIHLISKETGEAGEWRGELNGKEGVFPDNFAVQINEL, the abundance fitness is -0.781 ± 0.19.

KEYCRTLFAYEGTNEDELTFKEGEIIHLISKETGEAGPWRGELNGKEGVFPDNFAVQINEL: the abundance fitness was -0.729 ± 0.1.

As to KEYCRTLFAYEGTNEDELTFKEGEIIHLISKETGEAGDWRGELNGKEGVFPDNFAVQINEL, the abundance fitness is -0.825 ± 0.18.

For KEYCRTLFAYEGTNEDELTFKEGEIIHLISKETGEAGCWRGELNGKEGVFPDNFAVQINEL, the abundance fitness was -0.345 ± 0.072.

KEYCRTLFAYEGTNEDELTFKEGEIIHLISKETGEAGAWRGELNGKEGVFPDNFAVQINEL: the abundance fitness was -0.502 ± 0.076.

As to KEYCRTLFAYEGTNEDELTFKEGEIIHLISKETGEAGHWRGELNGKEGVFPDNFAVQINEL, the abundance fitness was -0.349 ± 0.12.

For KEYCRTLFAYEGTNEDELTFKEGEIIHLISKETGEAGQWRGELNGKEGVFPDNFAVQINEL, the abundance fitness is -0.3 ± 0.1.

Regarding KEYCRTLFAYEGTNEDELTFKEGEIIHLISKETGEAGFWRGELNGKEGVFPDNFAVQINEL, the abundance fitness was -0.145 ± 0.12.

Turning to KEYCRTLFAYEGTNEDELTFKEGEIIHLISKETGEAGGWRGELNGKEGVFPDNFAVQINEL, the abundance fitness was -0.559 ± 0.13.

Consider KEYCRTLFAYEGTNEDELTFKEGEIIHLISKETGEAGIWRGELNGKEGVFPDNFAVQINEL, for which the abundance fitness is -0.361 ± 0.075.

Regarding KEYCRTLFAYEGTNEDELTFKEGEIIHLISKETGEAGKWRGELNGKEGVFPDNFAVQINEL, the abundance fitness is -0.034 ± 0.077.

These data come from the Human Domainome abundance scans (Beltran et al. 2025).
